Measured values as given in US20150071923A1 (published 2015).
Read-outs that look alike come from different tables or passages of the source.

B1: huY104D-MMAE antibody-drug conjugate (antibody, human IgG1, kappa)
heavy: not shown
light: AIQLTQSPSSLSASVGDRVTITCRASQSIGTNIHWYLQKPGQSPQLLIYYASESISGIPDRFSGSGSGTDFTLTISRLEPEDFAVYYCQQNNNWPTTFGQGTKVEIKRTVAAPSVFIFPPSDEQLKSGTASVVCLLNNFYPREAKVQWKVDNALQSGNSQESVTEQDSKDSTYSLSSTLTLSKADYEKHKVYACEVTHQGLSSPVTKSFNRGEC
modifications: MMAE conjugated as described in Example 18 (maleimidocaproyl-vcPAB linker on reduced disulfide cysteines)
B2: huY104E-MMAE antibody-drug conjugate (antibody, human IgG1, kappa)
heavy: not shown
light: B1 light
modifications: MMAE conjugated as described in Example 18 (maleimidocaproyl-vcPAB linker on reduced disulfide cysteines)
B3: humanized Y104D/Q111P cetuximab mutant antibody (DP-h7) (antibody, human IgG1, kappa)
heavy: not shown
light: B1 light
notes: Full-length IgG; also called DP-h07
B4: humanized Y104D anti-EGFR antibody (D-h) (antibody, human IgG1, kappa)
heavy: not shown
light: B1 light
notes: Full-length IgG; also called huY104D; D-h07
B5: humanized Y104E anti-EGFR antibody (E-h) (antibody, human IgG1, kappa)
heavy: not shown
light: B1 light
notes: Full-length IgG; also called huY104E; E-h07
B6: humanized Y104E/Q111P anti-EGFR antibody (EP-h) (antibody, human IgG1, kappa)
heavy: not shown
light: B1 light
notes: Full-length IgG; also called EP-h07
B7: flag-tagged humanized T030F/Y104D/Q111P mutant anti-EGFR antibody (FDP-h3) (antibody, human IgG1, kappa, V domains shown)
VH: EVQLVQSGAEVKKPGATVKISCKVSGFSLFNYGVHWVRQATGQGLEWMGVIWSGGNTDYNTPFTSRFTISRDDSKNTAYLQMNSLKTEDTAVYYCARALTYYDDEFAYWGPGTLVTVSS
VL: AIQLTQSPSSLSASVGDRVTITCRASQSIGTNIHWYLQKPGQSPQLLIYYASESISGIPDRFSGSGSGTDFTLTISRLEPEDFAVYYCQQNNNWPTTFGQGTKVEIKR
notes: also called FDP-h03

Tests used:
[1] = target: human epidermal growth factor receptor (EGFR) on cells and tissues (human, UniProt P00533 25-1210); assay: cell-based or functional assay
[2] = target: T1, His-tagged soluble extracellular domain of EGFR (sEGFR-H6; Sino Biologics, Cat #10001-H08H) (human, UniProt P00533 25-645); assay: pH-sensitive ELISA on coated sEGFR-H6
T1 construct: Bought protein; also called EGFR sECD; soluble extracellular domain of EGF receptor

[3] = target: T1, His-tagged soluble extracellular domain …; assay: pH-sensitive ELISA, transfected supernatant adjusted to 1 ng/mL
[4] = target: T1, His-tagged soluble extracellular domain …; assay: pH-sensitive ELISA, transfected supernatant adjusted to 2 ng/mL
[5] = target: T1, His-tagged soluble extracellular domain …; assay: pH-sensitive ELISA, transfected supernatant adjusted to 4 ng/mL
[6] = target: T1, His-tagged soluble extracellular domain …; assay: ELISA on coated sEGFR-H6; pH 7.4, 1 mM lactic acid, 25% human serum
[7] = target: T1, His-tagged soluble extracellular domain …; assay: ELISA on coated sEGFR-H6; pH 6.5, 16.7 mM lactic acid, 25% human serum
[8] = target: T1, His-tagged soluble extracellular domain …; assay: ELISA on coated sEGFR-H6; pH 6.0, 16.7 mM lactic acid, 25% human serum
[9] = target: T1, His-tagged soluble extracellular domain …; assay: pH-sensitive ELISA on coated sEGFR-H6; remark: listed apart in the source
[10] = target: T1, His-tagged soluble extracellular domain …; assay: ELISA on coated sEGFR-H6; pH 7.4, 1 mM lactic acid, 25% human serum; remark: listed apart in the source
[11] = target: T1, His-tagged soluble extracellular domain …; assay: ELISA on coated sEGFR-H6; pH 6.5, 16.7 mM lactic acid, 25% human serum; remark: listed apart in the source
[12] = target: T1, His-tagged soluble extracellular domain …; assay: ELISA on coated sEGFR-H6; pH 6.0, 16.7 mM lactic acid, 25% human serum; remark: listed apart in the source
[13] = target: T1, His-tagged soluble extracellular domain …; assay: pH-sensitive ELISA on coated sEGFR-H6; remark: listed apart in the source
[14] = target: T1, His-tagged soluble extracellular domain …; assay: ELISA on coated sEGFR-H6; pH 7.4, 1 mM lactic acid, 25% human serum; remark: listed apart in the source
[15] = target: T1, His-tagged soluble extracellular domain …; assay: ELISA on coated sEGFR-H6; pH 6.5, 16.7 mM lactic acid, 25% human serum; remark: listed apart in the source
[16] = target: T1, His-tagged soluble extracellular domain …; assay: ELISA on coated sEGFR-H6; pH 6.0, 16.7 mM lactic acid, 25% human serum; remark: listed apart in the source

| Binder | ratio of binding activity pH 6.0/7.4 (inverse EC50) [2] | ratio of binding activity pH 6.5/7.4 (inverse EC50) [2] | D (maximum) of 4-parameter fit [6] [OD450] | EC50 [6] [ng/mL] | D (maximum) of 4-parameter fit [7] [OD450] | EC50 [7] [ng/mL] | D (maximum) of 4-parameter fit [8] [OD450] | EC50 [8] [ng/mL] | ratio of binding activity pH 6.0/7.4 (inverse EC50) [9] | ratio of binding activity pH 6.5/7.4 (inverse EC50) [9] | D (maximum) of 4-parameter fit [10] [OD450] | EC50 [10] [ng/mL] | D (maximum) of 4-parameter fit [11] [OD450] | EC50 [11] [ng/mL] | D (maximum) of 4-parameter fit [12] [OD450] | EC50 [12] [ng/mL] | also measured |
| --- | --- | --- | --- | --- | --- | --- | --- | --- | --- | --- | --- | --- | --- | --- | --- | --- | --- |
| B1 | – | – | – | – | – | – | – | – | – | – | – | – | – | – | – | – | IC50 for cell growth inhibition of keratinocytes at pH 7.4 [1]: ~17 nM; cell growth inhibition of HT29 cells at pH 6.8; concentration for about 50% inhibition [1]: ~22 nM; cell growth inhibition of HT29 cells at pH 6.8; maximum concentration tested [1]: ~80% |
| B2 | – | – | – | – | – | – | – | – | – | – | – | – | – | – | – | – | IC50 for cell growth inhibition of keratinocytes at pH 7.4 [1]: ~5.4 nM; cell growth inhibition of HT29 cells at pH 6.8; concentration for about 50% inhibition [1]: ~22 nM; cell growth inhibition of HT29 cells at pH 6.8; maximum concentration tested [1]: ~80% |
| B3 | 8.1 | 4.86 | 3.14 | 33.6 | 3.83 | 6.91 | 3.83 | 4.15 | – | – | – | – | – | – | – | – | pH 6.0/pH 7.4 OD ratio [3]: 17.4; pH 6.0/pH 7.4 OD ratio [4]: 7.21; pH 6.0/pH 7.4 OD ratio [5]: 11.3 |
| B4 | 6.2 | 3.99 | 3.45 | 30.2 | 3.84 | 7.57 | 3.89 | 4.87 | 8.33 | 4.44 | 2.03 | 56.4 | 3.82 | 12.7 | 3.88 | 6.77 | – |
| B5 | 14.5 | 7.85 | 3.23 | 46.1 | 3.85 | 5.87 | 3.92 | 3.18 | 12.3 | 6.04 | 1.44 | 59.3 | 3.94 | 9.82 | 3.87 | 4.82 | – |
| B6 | 17.8 | 11 | 2.91 | 69.8 | 3.89 | 6.37 | 3.92 | 3.92 | 48.8 | 17.3 | 1.83 | 209 | 3.93 | 12.1 | 3.91 | 4.28 | – |
| B7 | – | – | – | – | – | – | – | – | – | – | – | – | – | – | – | – | ratio of binding activity pH 6.0/7.4 (inverse EC50) [13]: 7.53; ratio of binding activity pH 6.5/7.4 (inverse EC50) [13]: 6.69; D (maximum) of 4-parameter fit [14]: 3.65 OD450; EC50 [14]: 32.6 ng/mL; D (maximum) of 4-parameter fit [15]: 3.76 OD450; EC50 [15]: 4.87 ng/mL; D (maximum) of 4-parameter fit [16]: 3.79 OD450; EC50 [16]: 4.33 ng/mL |
